According to paper PMC9868604, “Structural insights into 3Fe–4S ferredoxins diversity in M. tuberculosis highlighted by a first redox complex with P450” (Frontiers in Molecular Biosciences, 2022):

How the values were obtained:
Settings in all cases: both partners purified
[1] = target: T1, CYP143 part of the FdxE-CYP143 fusion protein (M. tuberculosis, UniProt P9WPL3 2-393); assay: crystal structure; FdxE fused via a linker to the N-terminus of CYP143 on one chain; 1.6 Å; crystals in .2 M sodium chloride, .1 M Bis-Tris pH 6.0, 25% PEG3350, 20°C
T1 construct: also called fusion FdxE–CYP143
T1 sequence (P9WPL3 2-393): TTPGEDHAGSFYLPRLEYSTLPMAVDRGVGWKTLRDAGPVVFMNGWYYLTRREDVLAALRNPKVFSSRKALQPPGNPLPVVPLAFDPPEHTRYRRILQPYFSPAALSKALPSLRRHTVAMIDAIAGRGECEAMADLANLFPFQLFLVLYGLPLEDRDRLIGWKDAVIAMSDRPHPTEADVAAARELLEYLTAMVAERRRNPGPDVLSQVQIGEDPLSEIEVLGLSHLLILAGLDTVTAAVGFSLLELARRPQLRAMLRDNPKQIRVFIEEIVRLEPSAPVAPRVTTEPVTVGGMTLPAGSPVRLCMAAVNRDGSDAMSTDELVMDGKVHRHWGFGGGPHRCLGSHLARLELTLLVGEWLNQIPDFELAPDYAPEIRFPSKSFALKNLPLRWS

[2] = target: T2, Biotinylated CYP143 with Avi-tag at the C-terminus (M. tuberculosis, UniProt P9WPL3 2-393, biotin (on the Avi-tag)); assay: SPR
T2 construct: also called CYP143A1; Rv1785c; not shown: Avi-tag, C-terminal, kept
T2 sequence (P9WPL3 2-393): as above

[3] = target: T2, Biotinylated CYP143 with Avi-tag at the …; assay: SPR; as a1, sensorgrams at 10, 15, 20, 25, 30 and 35°C; enthalpy from the slope of a Van't Hoff plot

B1: FdxE part of the FdxE-CYP143 fusion protein (domain or fragment)
chain: KVRLDPSRCVGHAQCYAVDPDLFPIDDSGNSILAEHEVRPEDMQLTRDGVAACPEMALILEEDDAD
notes: also called fusion FdxE–CYP143; not shown: His-tag, N-terminal, kept
- binding result [1]: binds

B2: FdxE (Rv1786), 3Fe-4S ferredoxin of M. tuberculosis (natural protein)
chain: MKVRLDPSRCVGHAQCYAVDPDLFPIDDSGNSILAEHEVRPEDMQLTRDGVAACPEMALILEEDDAD
notes: also called ferredoxin Rv1786; mtb_1786
- Kd [2]: 84 ± 2 nM
- koff [2]: 0.0423 ± 0.0005 s⁻¹
- kon [2]: 502000 M⁻¹ s⁻¹
- dH [3]: -10.8 ± 2.15 kcal/mol
